Measured values reported in the nanobody polyreactivity screen of Harvey et al. (2022).

Assay: yeast display, Sf9 membrane polyspecificity reagent, FACS + sequencing; frameworks hold sequencing errors
Method in brief: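 Using colony PCR, genes from sorted yeast display clones were amplified, then sequenced on MiSeq at 2 × 250 and filtered by CDR length. The clones had been stained with 10% biotinylated, detergent-solubilized Sf9 membrane reagent for 1 hour at 4 °C and sorted by FACS into low and high (top ~1%) gates on anti-HA and streptavidin fluorescence. Polyreactivity labels come from the gate of origin.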

Sequence	polyreactivity (PSR sort gate)
QVQLVESGGGLVQAGGSLRLSCAASGSTFPGYAMGRYRPAPGKERELVAAISASGGSTYYADSVKGRFTISRDYAKNTVYLQMNSLTPEDTAVYYCAKVLSRGASAHVYWGQGTQVTVSS	low polyreactivity
QVQLQESGGGLVQAGGSLRLSCAASGSSSILHSMGWYRQAPRKERELVAGINWGATTYYADSVKGRLTTSRDYAKNTVYLQMNSLKPEDTAVYYCAVPTYYPYPLLYWGQGTQVTVSS	low polyreactivity
QVQLVESGGGLVQAGGSLRLSCAASGFTFRTYAMGWYRQAPGKERELVAAITRNGGTYYADSVKGRFTISRDNAKNTVYLQMHSLNPEDTAVYYCATDPAYWGDQPPEYDYWGQGTQVTVSS	low polyreactivity
QVQLVESGGGLVQAGGSLRLSCAASGYIFRGYVMGWYRQAPGKERELVAGISRSGSSTYYADSVKGRFTISRDNAKNTVYLQMNSLKPEDTAVYYCAAVRSGIEYGYWGQGTQVTVSS	high polyreactivity
QDQLVESRGGLVQAGGSLRLRCAASGSIFIGYAMGWYRQAPGKQRELVAAISGSGSSTYYADSVKGRFTISRDNAKNNDYLQMNILKPEDTAVYYCAAAPRFRGYDYCGQGTQVTVSS	high polyreactivity
QVQLVESGGGLVQAGGSLRLSCAASGRTFQSYAMGWYRQEPGKERELVAAITITGGRTYYADSVKGRFTISRDNAKNTVYLQMNSLKPEDTAVYYCAAEEYSHYTLGYVYWGQGTQVTVSS	low polyreactivity
QVQLVESGGGLVQAGGSLRLSCAASGRTFTPYAMGWYRQAPGKERELVATISGGGSTHYADSVKGRFTISRDNAKNTVYIQRNSLKPEDTAVYYCSPSRDTVGRGPIQRDYWGQGTQVTVSS	low polyreactivity
QVQLVESGGGLVQAGGSLRLSCAASGRIFRIYAMGWYRQAPGKERELVASITWRGGRTYYADSVKGRFTISRDNAKNTVYLQMNSLKPEDTAVYYCAATSSTSYYWGQGTQVTVSS	high polyreactivity
QVQLVETGGRLVQAGGSLRLSCAASGFTFWTYAMGWYRQAPGKERELVAAISTSGGSTYYADSVKGRFTISRDNAKNTVYLQMNSLKPEDTAVYYCSAYAIGEHFRARYGYWGQGTQVTVSS	high polyreactivity
QVQLVESGGGLVQAGGSLRLSCAASGLIFYYYAMGWYRQAPGKERELVAAITRGGRTYYADSVKGRFTISRDNAKNTVYLQMNSLKPEDTAVYYCAAGWYQGFDYWGQGTQVTVSS	high polyreactivity
QVQLVESGGGVVQAGGSLRLTCAASGLTFNIYSLGWYRQAPGKEREFDATISSSGGGTYYADSVKGRFSISRDHAKNTVYVQLHSLPPEDTAVYYCARDSPDHVTYLHYHYDYWGQGTQVTVSS	low polyreactivity
QVQLVESGVGLVQAGGSLRLSCAASGSTFTYYAMGWYRQAPGKESELVAAITASGTSTYYPDSVKGRFTISRDYAKNTVYLQMNSLKPEDTAVYYCAATRFKWTRIYPYYTGQGYNYWGQGTQVTVSS	high polyreactivity
QVQLVESGGGLVQAGGSLRLSCAASGTTLPYYAMGWYRQAPGKERELVAAITSSGGDTYYADSVKGRFTISRDNAKNTVYLQMNSLKPEDTAVYYCAKSYSARSTVRKLFYFAYDYWGQGTQVTVSS	low polyreactivity
QVQLVESRGGLVQAGGSLRLSCAASGFTFVYYTMGWYRQAPGKERELVAAINWSGGSTYYADSVKGRFTISRDNAKNTVYLQMNSLKPEDTAVYYCAADTSYYPYEYWGQGTQVTVSS	high polyreactivity
QVHLVESGGGLVQAGGSLRLSCAASGSNCTYYAMGWYRQAPGKERELVAAIDFSGASTSYADSVKGRFTISRDNAKNTVYFQMNSLKPEDTAVYYCAAVLYWYPPYYYWGQGTQVTVSS	low polyreactivity
QVQLVESGGGLVQAGGSLRLSCAASGSTFGYNTMGWYRQAPGKERELVASITGRGGSTYYADSVKGRFTISRDNAKNTVYLQMNSLKPEDTAVYYCAAAWKAYRRYGYWGQGTQVTVSS	high polyreactivity
QVQLVESGGGLVQAGGSLRLSCAASGSTFQTNAMGWYRQAPGKERELVAGIRWRGGSTYYADSVKGRFTISRDNAKNTVYLQMNSLKPEDSAVYYCAAYYLWHHYLFDYWGQGTQVTVSS	high polyreactivity
QVQLVESGGGLVQAGGSLRLSCAASGLTFFGYAMGWYRQAPGKERELVAPISSSGTRTYYADSVKGRFTISRDNAKNTVYLQMNSLKPEDTAVYYCATVRYQEYDYWGQGTQVTVSS	high polyreactivity
QVQLVESGGGLVQAGGSLRLSCAASGIIFRGYVMGWYRQAPGKERELVAAISTSGGRTSYADSVKGRFTISRDNAKNTVYLQMNSLKPEDTAVYYCAADSGYRYYTKSVGYDYWGQGTQVTVSS	high polyreactivity
QDQLVESGGGLVQAGGSLRLSCAASGSTLFYAMGWYRQAPGKERELVAAISWSGGSTRYADSVKGRFTISRDNAKNTVYLQMNSLKPEDTAVYYCNRDPDTWGYQPDWYYGAYDYWGQGTQVTVSS	low polyreactivity
QVQLVESGGGLVQAGGSLRLSCAASGSIFRYNAMGWYRQAPGKERELVAAISWSGGSTYYADSVKGRFTISRDNAKNTVYLQMNSLKPEDTAVYYCATRYYVNVPGRRYGYWGQGTQVTVSS	low polyreactivity
QVQLVESGGGLVQAGGSLRLSCAASGSIFYGYAMGWYRQAPGKEREFVASINSGVGSTYYADSVKGRFTISRDNAKNTVYLQMNSLKPEDTAVYYCNKVHRSFTYNDGQTPAYDYWGQGTQVTVSS	low polyreactivity

Sequence	polyreactivity (PSR sort gate)
QVQLVESGGGLVEAGGSLRLTCAASGYIIGGNAMGWYRQAPGKERELVAVISSRGGRTYYSDSVKGRFTISRDNAKNTVYLQLNSLKPEDTEVYYCYRVFSYQYKRDYWGQGTQVTVSS	high polyreactivity
QVQLVESGGGLVQAGGSLRLSCAASGRTFYEYAMGWYRQAPGKERELVAAITIDGSTNYADSVKGRFTISRDNAKNTVYLQMNSLKPEDTAVYYCNARYLLYHGQHYRPYNYWGQGTQVTVSS	high polyreactivity
QVQLVDSGGGLVQAGGSLRLTCAASARTFHYYAMGWYREAPGKERELVAAITSSGGSTYADSVKGRFTISRDNAKNTVYLQMNSLKPEDTAVYYCARDRYDNPYDQELDYWGQGTQVTVSS	low polyreactivity
QVQLVESGGGLVQAGGSLRLSCAASGRIFSYYDMGWYRQAPGKERELVAVISSRGGSTFYADSVKGRFTISRDNAKNTVYLLMNSLKAEDTAVYDCASRSLYVGYDYWGQCTQVTVSS	high polyreactivity
QVQLVESGGGLVQAGGSLRLSCAASGSIFSPNAMGWYRQAPGKERELVAGITRSGGRTYYADSVKGRFTISRDNAMNTVYLQMNSLKPEDTAVYYCAARAFSYGLKYDYWGQGTQVTVSS	high polyreactivity
QVQLQASGVGLVQSGGSLRLSCASRGTNFTARFMGWYRQAPGKERELVATITDGGNTNHADRVKGRFTISRDNAKNTVYLQMNSLKPEDAAVYYCAAGEVDNDTLLYWGQGSQVTVSS	low polyreactivity
QVQLVESGGGLVQAGGSLRLSCAASGLTFPHYAMGWYRQAPGKERELVAAISSGGSTHYADSVKGRFTISRDNAKNTVYLQMNSLKPEDTAVYYCAARRHGRRTVQGKFDFWGQGTQVTVSS	high polyreactivity
QVQLVESGGGLVQAGGSLRLSCAASGRTFASYAMGWYRQATGKERELVAAITGSGGSTYYADSVKGRFTISRDNAKNTVYLQMNSLKPEDTAVYYCNKGPHYPVYLEYIVGYDYWGQGTQVTVSS	low polyreactivity
QVQLVESRGGLVQAGGSLRLSCAASGIIFYQYAMGWYRQAPGKERELVAAITRSGGSTYFADSVKGRFTISRDNAKNTVYLQMKSLKPEDTAVYYCAARPFHSGYEGYGYWGQGTQVTVSS	high polyreactivity
QFQLVESGGGLVQAGGSLRLSCAASGITFGTNAMGWYRQATGKERELVARISSSDASTYYADSVKGRFTISRDNGKNTVYLQMNSLKPEDTAVYYCAADIYVTGYFRYDYWGQGTQVTVSS	low polyreactivity
QVQLVESGGGLVQAGGSLRLSCAASGFTLHSYAMGWYRQAPGKERELVAAITTGGSTYYADSVKGRFTISRDNAKNTVYLQMNSLKPEDTAVYYCAAEDPGPYGGYDYWGQGTQVTVSS	low polyreactivity
QIQLVESGGGLLQAGGSLGLSCAASGSIFVKYAMGWYRQAPGKERELVAAITTGVGSTYYADSVKGRFTISRDNAKNTVYLQMNSVKPEDSAVFYWNAYAYFGPWWSFRATYDYWGQGTQVTVSS	low polyreactivity
QVQLVESGGGLVQAGGSLRLSCAASGSTFGYYAMGWYRQAPGKERELVASISSRGGSTYYADSVKGRFTISRDNAKNTVYLQMNSLKPEDTAVYSCAARYGGFPVPGRYNYWGQGTQVTVSS	high polyreactivity
QVQLVESGGGLVQAGGILRLSCAASGSIFYRYAMGWYRPAPGKERELVAAINWSGGITYYADSEKGRFTISRDNAKITFYLQMISLKPEDTAVYYCAARTHVYNWGYYYWGQGTQVTVSS	high polyreactivity
QVQLVESGGGLVQAGGSLRLSCAASGIIFRGYVMGWYRQAPGKERELVADISRGGSTYYADSVKGRFTISRDNAKNTVYLQMNSLKPEDTAVYYCATAGPLWFYWGYDYWGQGTQVTVSS	low polyreactivity
QVQLVESGGGLVQAGGSLRLSCAASGRIFNSNAMGWYRQAPGKERELVAAISWSGGTTYYADSVKGRFTISRDNAKNTVYLQMNSLKPEDTAVYYCNADLWTSYFGRGDYWGQGTQVTVSS	low polyreactivity
QVQLVESGGGLVQAGGSLRLSCAASGSIFKYNAMGWYRKAPGKERELVAAISWSGASTSYADSVKGRFTISRDNAKNTVYLQMNSLKPEDTAVYYCNAYYWYYSTRKYYYWGQGTKVTVSS	high polyreactivity
QVQLVESGGGLVQAGGTLRLSCAASGSTFPGYAIGSNRQAPGKERELVAAISVSGDRTYYADSVKGRFTISRDNAKNTVYLQMNSLKPEDTAVYYCAVRTRYRSYGVWVGNYSWGQGTQVTVSS	high polyreactivity
QVQLVESGGGLVQAGGSLRLSCAASGSIFIIYAMGWYRQAPGKERELVAAINTSGTSTYYADSVKGRFTISRDNAKNTVYLQMNSLKPEDTAVYYCAAAGRRSYKYYFWGQGTQVTVSS	high polyreactivity
QVQLVESVGGLVQAGGSLRLSCAASGSIFSAYAMGWYRQAPGKERELVASISWSGSSTYADSVKGRFTISRDNAKNTVYLQMNSLKPEDTAVYYCAAGYYSFRSAYDYWGQGTQVTVSS	high polyreactivity
QVQLVESGRGLVEAGGSLRLICAASGFIIRYYAMGWYRQAPWKERELVAAISTSGGRTYYADSVKGRFTISRDNAKNTVYLQMNSLKPEDTAVYYCNAYTHNRYYWGQGTQVTVSS	high polyreactivity
